From US20240247080A1, “GLP1/GIP/NPY2 RECEPTOR TRIPLE AGONISTS” (Boehringer Ingelheim International GmbH, priority 2022, published 2024)
Where a chain is given by its changes, count along the chain named. Starred links: 1 amine or outer side, 2 acyl side, 3 side chain; linkers in the order of their positions; H or OH if unused. Non-standard residues stand in square brackets, D forms with d. Groups on a side chain read outwards from the residue. No end group written: not given here. *: point of attachment. C20 diacid = O=C(O)CCCCCCCCCCCCCCCCCCC(=O)*; γGlu = O=C(O)[C@H](CCC(=O)[*:2])N[*:1]; εLys = N[C@@H](CCCCN[*:1])C(=O)[*:2]; AEEA = NCCOCCOCC(=O)O; Aib = CC(C)(N)C(=O)O

T1: human GIP receptor (human, UniProt P48546 22-466)
T1 sequence (looked up): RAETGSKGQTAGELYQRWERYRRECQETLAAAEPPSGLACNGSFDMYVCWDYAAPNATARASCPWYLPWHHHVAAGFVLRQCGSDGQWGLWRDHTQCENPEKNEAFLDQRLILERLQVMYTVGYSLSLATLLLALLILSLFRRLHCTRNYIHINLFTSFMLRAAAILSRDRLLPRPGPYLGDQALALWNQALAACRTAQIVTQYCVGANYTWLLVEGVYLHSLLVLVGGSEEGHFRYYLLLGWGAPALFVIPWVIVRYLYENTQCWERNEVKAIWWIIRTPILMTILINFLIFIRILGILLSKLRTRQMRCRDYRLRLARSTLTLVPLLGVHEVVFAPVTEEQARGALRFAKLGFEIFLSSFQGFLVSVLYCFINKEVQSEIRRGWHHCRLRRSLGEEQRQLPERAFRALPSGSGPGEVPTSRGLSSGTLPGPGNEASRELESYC

T2: human neuropeptide Y2 receptor (human, UniProt P49146 1-381)
T2 sequence (looked up): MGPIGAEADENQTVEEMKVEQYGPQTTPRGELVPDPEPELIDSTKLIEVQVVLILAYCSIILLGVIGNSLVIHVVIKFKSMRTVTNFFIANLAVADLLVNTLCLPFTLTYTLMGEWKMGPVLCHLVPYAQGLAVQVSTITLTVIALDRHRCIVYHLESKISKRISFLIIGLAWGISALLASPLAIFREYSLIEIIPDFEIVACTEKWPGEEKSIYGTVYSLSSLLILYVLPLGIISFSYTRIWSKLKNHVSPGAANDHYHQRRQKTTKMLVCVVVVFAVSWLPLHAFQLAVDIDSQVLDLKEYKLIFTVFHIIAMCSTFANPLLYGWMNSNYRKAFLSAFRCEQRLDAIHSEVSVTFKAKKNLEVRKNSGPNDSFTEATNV

B1: Compound 107 (peptide)
peptide: YXEGTFTSDYSIXLEKQAQXAFVEWLIKGGPSSGLSLRHYYNWLTRQRY
modifications: Aib at 2, 13, 20; K28 side chain: C20DA-gGlu-gGlu-gGlu-gGlu-gGlu-gGlu-eLys; C-terminal NH2
B2: Compound 129 (peptide)
peptide: B1 peptide with L35A, R38X
modifications: Aib at 2, 13, 20, 38; K28 side chain: C20DA-gGlu-gGlu-gGlu-gGlu-gGlu-gGlu-eLys; C-terminal NH2
B3: Compound 130 (peptide)
peptide: B1 peptide with V23I, L35A
modifications: Aib at 2, 13, 20; K28 side chain: C20DA-gGlu-gGlu-gGlu-Glu-gGlu-gGlu-eLys; C-terminal NH2
B4: Compound 117 (peptide)
peptide: B1 peptide with L35A, L37V
modifications: Aib at 2, 13, 20; K28 side chain: C20DA-gGlu-gGlu-gGlu-gGlu-gGlu-gGlu-eLys; C-terminal NH2
B5: Compound 115 (peptide)
peptide: B1 peptide with E24Q, S33E, L35A
modifications: Aib at 2, 13, 20; NMeQ at 47; K28 side chain: C20DA-gGlu-gGlu-gGlu-gGlu-gGlu-gGlu-eLys; C-terminal NH2
B6: Compound 124 (peptide)
peptide: B1 peptide with K16Q, L35A
modifications: Aib at 2, 13, 20; K28 side chain: C20DA-gGlu-gGlu-gGlu-gGlu-Glu-gGlu-eLys; C-terminal NH2
B7: Compound 127 (peptide)
peptide: B1 peptide with L35E
modifications: Aib at 2, 13, 20; K28 side chain: C20DA-gGlu-gGlu-gGlu-gGlu-gGlu-gGlu-eLys; C-terminal NH2
B8: Compound 119 (peptide)
peptide: B1 peptide with L35A, H39X
modifications: Aib at 2, 13, 20; Tle at 39; K28 side chain: C20DA-gGlu-gGlu-gGlu-gGlu-gGlu-gGlu-eLys; C-terminal NH2
B9: Compound 123 (peptide)
peptide: B1 peptide with P31Q, L35A
modifications: Aib at 2, 13, 20; K28 side chain: C20DA-gGlu-gGlu-gGlu-gGlu-gGlu-gGlu-eLys; C-terminal NH2
B10: Compound 116 (peptide)
peptide: B1 peptide with K16E, L35A
modifications: Aib at 2, 13, 20; K28 side chain: C20DA-gGlu-gGlu-gGlu-gGlu-gGlu-gGlu-eLys; C-terminal NH2
B11: Compound 112 (peptide)
peptide: B1 peptide with E24Q, L35A
modifications: Aib at 2, 13, 20; K28 side chain: C20DA-gGlu-gGlu-gGlu-gGlu-gGlu-OEG-OEG; C-terminal NH2
B12: Compound 121 (peptide)
peptide: B1 peptide with K16S, L35A
modifications: Aib at 2, 13, 20; K28 side chain: C20DA-gGlu-gGlu-gGlu-gGlu-gGlu-gGlu-eLys; C-terminal NH2
B13: Compound 128 (peptide)
peptide: B1 peptide with E15D, L35A
modifications: Aib at 2, 13, 20; K28 side chain: C20DA-gGlu-gGlu-gGlu-gGlu-gGlu-gGlu-eLys; C-terminal NH2
B14: Compound 114 (peptide)
peptide: B1 peptide with E24Q, S33E, L35V
modifications: Aib at 2, 13, 20; K28 side chain: C20DA-gGlu-gGlu-gGlu-gGlu-gGlu-gGlu-eLys; C-terminal NH2
B15: Compound 111 (peptide)
peptide: B1 peptide with E24Q, S33E, G34P, L35A
modifications: Aib at 2, 13, 20; K28 side chain: C20DA-gGlu-gGlu-gGlu-gGlu-gGlu-OEG-OEG; C-terminal NH2
B16: Compound 125 (peptide)
peptide: B1 peptide with E24Q, S33E, L35A
modifications: Aib at 2, 13, 20; NMeR at 48; K28 side chain: C20DA-gGlu-gGlu-gGlu-gGlu-gGlu-gGlu-eLys; C-terminal NH2
B17: Compound 118 (peptide)
peptide: B1 peptide with L35A, L37X
modifications: Aib at 2, 13, 20, 37; K28 side chain: C20DA-gGlu-gGlu-gGlu-gGlu-gGlu-gGlu-eLys; C-terminal NH2
B18: Compound 122 (peptide)
peptide: B1 peptide with S33E, G34P, L35E
modifications: Aib at 2, 13, 20; K28 side chain: C20DA-gGlu-gGlu-gGlu-gGlu-gGlu-gGlu-eLys; C-terminal NH2
B19: Compound 120 (peptide)
peptide: B1 peptide with G34P, L35A
modifications: Aib at 2, 13, 20; K28 side chain: C20DA-gGlu-gGlu-gGlu-gGlu-gGlu-OEG-OEG; C-terminal NH2

target: human GLP-1 receptor (human, UniProt P43220 24-463); assay: cell-based or functional assay

Binder | EC50 CreLuc hGLP1R 0.5% hP | EC50 CreLuc hGLP1R 100% hP
Y[Aib]EGTFTSDYSI[Aib]LEKQAQ[Aib]AFVEWLLKGGPSSGASLRHYYNWLTRQRY-NH2 (not fully specified (residue 28)) [Compound 109] | 0.28 nM | 3.32 nM
B1 | 0.13 nM | 1.88 nM
B2 | 0.04 nM | 0.85 nM
B3 | 0.13 nM | 1.18 nM
B4 | 0.13 nM | 1.8 nM
B5 | 0.12 nM | 3.45 nM
B6 | 0.11 nM | 1.95 nM
B7 | 0.04 nM | 1.6 nM
B8 | 0.26 nM | 4.46 nM
B9 | 0.24 nM | 7.88 nM
B10 | 0.14 nM | 2.48 nM
B11 | 0.06 nM | 1.7 nM
B12 | 0.18 nM | 7.09 nM
B13 | 0.4 nM | 3.7 nM
B14 | 0.15 nM | 5.56 nM
B15 | 0.12 nM | 5.32 nM
B16 | 0.23 nM | 2.85 nM
B17 | 0.05 nM | 0.84 nM
B18 | 0.22 nM | 4.97 nM
B19 | 0.11 nM | 4.65 nM
Y[Aib]EGTFTSDYSI[Aib]LEEQAQ[Aib]AFVEWLIK([εLys-AEEA-γGlu-γGlu-γGlu-γGlu-γGlu-C20 diacid])GGPSSGASLRHYYNWLTRQRY-NH2 [Compound 110] | 0.15 nM | 1.53 nM
Y[Aib]EGTFTSDYSI[Aib]LEKQAQ[Aib]AFVQWLIKGGPEEGASLRHYYNWLTRQRY-NH2 (not fully specified (residue 28)) [Compound 108] | 0.4 nM | 6.16 nM
Y[Aib]EGTFTSDLSI[Aib]LEKQAQ[Aib]AFVQWLIKGGPSEGASLRHYYNWLTRQRY-NH2 (not fully specified (residue 28)) [Compound 113] | 0.19 nM | 3.72 nM
Y[Aib]EGTFTSDYSI[Aib]LEKQAQ[Aib]AFVEWLIKGGPSSYASLRHYYNWLTRQRY-NH2 (not fully specified (residue 28)) [Compound 126] | 0.18 nM | 3.36 nM

target: T1, human GIP receptor; assay: cell-based or functional assay

Binder | EC50 CreLuc hGIPR 0.5% hP | EC50 CreLuc hGIPR 100% hP
Y[Aib]EGTFTSDYSI[Aib]LEKQAQ[Aib]AFVEWLLKGGPSSGASLRHYYNWLTRQRY-NH2 (not fully specified (residue 28)) [Compound 109] | 0.09 nM | 0.64 nM
B1 | 0.27 nM | 0.99 nM
B2 | 0.06 nM | 0.5 nM
B3 | 0.11 nM | 0.98 nM
B4 | 0.14 nM | 1.18 nM
B5 | 0.51 nM | 1.89 nM
B6 | 0.26 nM | 0.89 nM
B7 | 0.05 nM | 0.84 nM
B8 | 0.63 nM | 4.31 nM
B9 | 0.42 nM | 4.11 nM
B10 | 0.43 nM | 3.01 nM
B11 | 0.19 nM | 0.83 nM
B12 | 0.65 nM | 7.29 nM
B13 | 0.11 nM | 0.9 nM
B14 | 0.27 nM | 2.34 nM
B15 | 0.55 nM | 1.96 nM
B16 | 0.28 nM | 1.72 nM
B17 | 0.06 nM | 0.55 nM
B18 | 0.08 nM | 1.53 nM
B19 | 0.34 nM | 1.44 nM
Y[Aib]EGTFTSDYSI[Aib]LEEQAQ[Aib]AFVEWLIK([εLys-AEEA-γGlu-γGlu-γGlu-γGlu-γGlu-C20 diacid])GGPSSGASLRHYYNWLTRQRY-NH2 [Compound 110] | 0.15 nM | 1.14 nM
Y[Aib]EGTFTSDYSI[Aib]LEKQAQ[Aib]AFVQWLIKGGPEEGASLRHYYNWLTRQRY-NH2 (not fully specified (residue 28)) [Compound 108] | 0.3 nM | 2.14 nM
Y[Aib]EGTFTSDLSI[Aib]LEKQAQ[Aib]AFVQWLIKGGPSEGASLRHYYNWLTRQRY-NH2 (not fully specified (residue 28)) [Compound 113] | 0.56 nM | 3.84 nM
Y[Aib]EGTFTSDYSI[Aib]LEKQAQ[Aib]AFVEWLIKGGPSSYASLRHYYNWLTRQRY-NH2 (not fully specified (residue 28)) [Compound 126] | 0.1 nM | 1.27 nM

target: T2, human neuropeptide Y2 receptor; assay: cell-based or functional assay

Binder | EC50 CreLuc hNPY2R 0.5% hP | EC50 CreLuc hNPY2R 100% hP
Y[Aib]EGTFTSDYSI[Aib]LEKQAQ[Aib]AFVEWLLKGGPSSGASLRHYYNWLTRQRY-NH2 (not fully specified (residue 28)) [Compound 109] | 10.8 nM | 52.2 nM
B1 | 16.7 nM | 58.5 nM
B2 | 30.9 nM | 87.6 nM
B3 | 18 nM | 54.8 nM
B4 | 6.81 nM | 24.6 nM
B5 | 7.8 nM | 30.6 nM
B6 | 16.2 nM | 39.9 nM
B7 | 13.2 nM | 66.3 nM
B8 | 23.1 nM | 80.1 nM
B9 | 6.12 nM | 31.3 nM
B10 | 13.5 nM | 85.7 nM
B11 | 8.05 nM | 27.6 nM
B12 | 23.8 nM | 88.9 nM
B13 | 24.8 nM | 51.9 nM
B14 | 7.73 nM | 44.8 nM
B15 | 13.4 nM | 36.8 nM
B16 | 30.9 nM | 99.3 nM
B17 | 6.2 nM | 26.2 nM
B18 | 26.3 nM | 78.9 nM
B19 | 10.7 nM | 39.2 nM
Y[Aib]EGTFTSDYSI[Aib]LEEQAQ[Aib]AFVEWLIK([εLys-AEEA-γGlu-γGlu-γGlu-γGlu-γGlu-C20 diacid])GGPSSGASLRHYYNWLTRQRY-NH2 [Compound 110] | 17.5 nM | 42.5 nM
Y[Aib]EGTFTSDYSI[Aib]LEKQAQ[Aib]AFVQWLIKGGPEEGASLRHYYNWLTRQRY-NH2 (not fully specified (residue 28)) [Compound 108] | 14.8 nM | 57.4 nM
Y[Aib]EGTFTSDLSI[Aib]LEKQAQ[Aib]AFVQWLIKGGPSEGASLRHYYNWLTRQRY-NH2 (not fully specified (residue 28)) [Compound 113] | 19.5 nM | 49.9 nM
Y[Aib]EGTFTSDYSI[Aib]LEKQAQ[Aib]AFVEWLIKGGPSSYASLRHYYNWLTRQRY-NH2 (not fully specified (residue 28)) [Compound 126] | 15.1 nM | 41.8 nM
